Results published in patent US20250197448A1 (UNIVERSITY OF ROCHESTER, published 2025).
Starred links: 1 amine or outer side, 2 acyl side, 3 side chain; linkers in the order of their positions; H or OH if unused. Positions of bridges follow the written chain, without caps; N, C: chain ends. Non-standard residues stand in square brackets, D forms with d. No end group written: not given here. O2beY = O-(2-bromoethyl)-tyrosine (p-2beF), reacts with Cys to form a thioether, O=C([C@H](Cc1ccc(OCCBr)cc1)N[*:1])[*:2]; pCaaF = p-(2-chloroacetamido)-phenylalanine, O=C(CCl)Nc1ccc(C[C@H](N[*:1])C(=O)[*:2])cc1

B1: RGD5R (pCaaF)-Tras-Fc (Fc fusion)
chain: DYKDDDDKGSGSCRDRGDY[pCaaF]QQQQQQIEGR-{Fc-H6}
modifications: thioether 13-20; also: dimeric through the Fc
notes: Integrin-targeting cyclopeptibody; dimeric through the human IgG1 Fc; also called cRGD5R (pCaaF)-Tras-Fc
B2: L2-m5-Tras-Fc (Fc fusion)
chain: DYKDDDDKGSGSTLSW[O2beY]EAMDMCTSSQQQQQQ-{Fc-H6}
modifications: thioether 17-23; also: dimeric through the Fc
notes: Cyclic peptide fused through a (Gln)6 spacer to human IgG1 Fc; dimeric through the Fc; made in E. coli; also called FLAG-(GS)2-TLSWZEAMDMCTSS-(Q)6-(Fc)^1-H6

Experiments:
[1] = target: T1, integrin αvβ3 on the surface of MDA-MB-231 breast cancer cells (human, UniProt P06756 31-1048; P05106 27-788); assay: flow cytometry on MDA-MB-231 cells, FITC anti-IgG1 Fc secondary
T1 construct: whole, on cells; also called integrin receptors on the cells
T1 sequence (P06756 31-1048, chain 1 of 2): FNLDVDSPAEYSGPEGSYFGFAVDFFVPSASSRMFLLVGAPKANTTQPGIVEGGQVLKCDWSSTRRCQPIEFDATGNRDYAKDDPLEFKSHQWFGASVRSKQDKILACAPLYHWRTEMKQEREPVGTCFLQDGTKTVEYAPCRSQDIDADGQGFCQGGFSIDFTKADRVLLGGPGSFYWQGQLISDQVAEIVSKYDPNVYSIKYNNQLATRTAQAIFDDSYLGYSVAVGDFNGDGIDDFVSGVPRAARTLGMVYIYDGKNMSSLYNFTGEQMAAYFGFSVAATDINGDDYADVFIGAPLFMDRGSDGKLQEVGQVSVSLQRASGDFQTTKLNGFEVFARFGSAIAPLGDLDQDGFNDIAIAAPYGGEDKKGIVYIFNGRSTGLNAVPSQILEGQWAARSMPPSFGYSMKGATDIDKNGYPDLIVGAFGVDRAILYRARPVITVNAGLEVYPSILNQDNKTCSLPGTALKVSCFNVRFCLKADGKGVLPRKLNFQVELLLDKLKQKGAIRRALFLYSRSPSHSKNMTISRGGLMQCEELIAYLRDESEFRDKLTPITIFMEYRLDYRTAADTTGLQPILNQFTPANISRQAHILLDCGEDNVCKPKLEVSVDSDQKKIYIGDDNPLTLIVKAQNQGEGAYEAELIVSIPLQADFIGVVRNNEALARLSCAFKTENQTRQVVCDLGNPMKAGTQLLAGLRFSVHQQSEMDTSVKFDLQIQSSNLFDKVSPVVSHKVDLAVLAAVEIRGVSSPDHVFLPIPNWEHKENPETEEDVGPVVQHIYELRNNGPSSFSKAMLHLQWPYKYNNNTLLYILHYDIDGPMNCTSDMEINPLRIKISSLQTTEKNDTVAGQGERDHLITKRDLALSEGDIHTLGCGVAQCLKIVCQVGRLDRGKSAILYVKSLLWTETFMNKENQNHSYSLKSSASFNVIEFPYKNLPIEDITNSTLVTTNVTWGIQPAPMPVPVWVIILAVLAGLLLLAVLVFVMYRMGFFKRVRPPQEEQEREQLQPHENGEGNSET
T1 sequence (P05106 27-788, chain 2 of 2): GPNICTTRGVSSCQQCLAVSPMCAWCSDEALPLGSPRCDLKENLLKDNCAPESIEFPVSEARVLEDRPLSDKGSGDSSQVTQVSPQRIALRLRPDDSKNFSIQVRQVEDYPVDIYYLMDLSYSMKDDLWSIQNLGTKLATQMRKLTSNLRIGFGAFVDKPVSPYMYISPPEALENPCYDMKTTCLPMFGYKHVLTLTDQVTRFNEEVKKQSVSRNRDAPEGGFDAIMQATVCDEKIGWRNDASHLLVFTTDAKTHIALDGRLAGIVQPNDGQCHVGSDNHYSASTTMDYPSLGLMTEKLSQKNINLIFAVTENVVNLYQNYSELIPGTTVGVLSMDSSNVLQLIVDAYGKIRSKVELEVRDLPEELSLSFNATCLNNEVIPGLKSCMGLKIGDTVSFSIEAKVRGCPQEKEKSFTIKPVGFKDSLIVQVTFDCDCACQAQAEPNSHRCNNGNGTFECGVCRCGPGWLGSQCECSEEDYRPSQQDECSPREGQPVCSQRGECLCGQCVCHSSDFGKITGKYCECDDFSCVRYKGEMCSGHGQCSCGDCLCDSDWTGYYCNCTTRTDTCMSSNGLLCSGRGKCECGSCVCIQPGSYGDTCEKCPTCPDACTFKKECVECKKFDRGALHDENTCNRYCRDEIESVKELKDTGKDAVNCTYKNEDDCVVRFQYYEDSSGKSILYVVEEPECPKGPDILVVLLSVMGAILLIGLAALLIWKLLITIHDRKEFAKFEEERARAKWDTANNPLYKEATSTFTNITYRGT
Protocol: Flow Cytometry Analysis. […] When confluent, media was aspirated, cells were washed once with 1×DPBS (no calcium, no magnesium) (Gibco). Adherent cells were detached from the petri dish with 1 mL of accutase (Gibco) pre-warmed to 37° C., followed by incubated for 5 min at 37° C. Cells were spun down using centrifugation. Supernatant was removed and cells were washed three times with staining buffer (1×PBS with 0.5% BSA). Cells were resuspended in Eppendorf tubes in 100 μL PBS at a concentration of […]. Cyclopeptibodies or Human anti-PD-L1 antibody (1 μg) (R&D Systems, MAB10355) in staining buffer were then added to the tubes with a concentration of 1.5 μM in 200 μL. Eppendorf tubes were then placed on the platform shaker for gently shaking for 1 hour at room temperature. After 1 hour, cells were spun down using centrifugation, then supernatant was removed. After washing three times, cells were resuspended in 200 μL of Fluorescein (FITC) AffiniPure Goat Anti-Human IgG with working concentration of 30 μg/mL (Jackson ImmunoResearch, 109-095-098), incubated in the dark for 30 min at room temperature. […] Then cells were analyzed on a BD FACS Accuri C6⁺ using a filter of 533/30. […]
The cyclopeptibody treated cells were then analyzed by flow cytometry using a procedure similar to that described for the PD-L1-targeting cyclopeptibodies in Example 9.

[2] = target: T2, Sonic Hedgehog (Shh) (human, UniProt Q15465 24-197, limits assumed); assay: plate binding assay with immobilised Shh
Protocol: After washing (3×150 μL of PBS with 0.05% Tween-20), each well was incubated with 100 μL of purified FLAG-tagged cyclopeptibody at varying concentrations for 1 hour at room temperature. After washing three times with wash buffer, each well was incubated with 100 μL of 1:2500 dilution of HRP-conjugate mouse anti-FLAG polyclonal antibody (Sigma-Aldrich) for 1 hour at room temperature. After washing three times with wash buffer, 100 μL of 2.2 mM o-phenylenediamine dihydrochloride, 4.2 mM urea hydrogen peroxide, 100 mM dibasic sodium phosphate, and 50 mM sodium citrate, pH 5.0, were added to each well, followed by measurement of the absorbance at 450 nm after 10-20 min using a Tecan Infinite 1000 plate reader. Equilibrium dissociation constants (Kp) were determined by fitting the dose-response curves to a 1:1 binding isotherm equation via nonlinear regression. using SigmaPlot. Mean values and standard deviations were calculated from experiments performed in triplicate.
To prepare a Hedgehog-targeting cyclopeptibody, a Shh-binding cyclic peptide previously developed via affinity maturation of a HHIP loop 2 mimic (Owens A E et al., 2017, J. Am. Chem. Soc., 139:12559-12568) was genetically fused to the Fc domain of human IgG1 via a spacer (Entry 5, Table 1). The resulting cyclopeptibody (called L2-m5-Tras-Fc) was expressed, purified, and characterized as described in Example 4. […]

[3] = target: T2, Sonic Hedgehog (Shh); assay: plate binding assay: immobilised Shh, FLAG-tagged binder titrated, HRP anti-FLAG detection

Binder | binding result [1] | fold improved affinity against the same cyclic peptide fused to CBD [2] [fold] | Kd [3] [nM]
B1 | binds |  | 
B2 |  | > 55 | 7
